Results: publication PMC7835884
Several values for one entry are separate records, joined by “and”; a condition that tells them apart may be missing. Equal entries are not always repeated.

Assays:
[1] = target: N-terminal 6X-His tagged TfAcCCB (carboxyltransferase subunit of Thermobifida fusca YX acyl-CoA carboxylase) (Thermobifida fusca YX); test: SEC; Ni-NTA purified holoenzyme from co-expression of all three subunits (wild-type or D427I TfAcCCB); Superdex 200 10/300 GL; 100 mM potassium phosphate pH 7.6, 0.75 mM DTT, 1 mM EDTA, 20% glycerol; apparent molecular weights against standards; peaks analysed by SDS-PAGE (Figure 2A, 2B)
[2] = target: N-terminal 6X-His tagged TfAcCCB (carboxyltransferase subunit of Thermobifida fusca YX acyl-CoA carboxylase) (Thermobifida fusca YX); test: SEC; Ni-NTA purified His-tagged TfAcCCB-TfAcCCE subcomplex or His-tagged TfAcCCA; Superdex 200 10/300 GL; 100 mM potassium phosphate pH 7.6, 0.75 mM DTT, 1 mM EDTA, 20% glycerol; apparent molecular weights against standards (Figure 2C, 2D)
[3] = target: N-terminal 6X-His tagged TfAcCCB (carboxyltransferase subunit of Thermobifida fusca YX acyl-CoA carboxylase) (Thermobifida fusca YX); test: pull-down; subunits co-expressed in E. coli; Ni-NTA affinity chromatography via the His-tag on TfAcCCB; SDS-PAGE with Coomassie staining and densitometry, or Western blot with anti-S-tag antibody (Figure 1A, 1B)
[4] = target: TfAcCCA (biotin carboxylase / biotin carboxyl carrier subunit of Thermobifida fusca YX acyl-CoA carboxylase), without tag (Thermobifida fusca YX); test: SEC; Ni-NTA purified holoenzyme from co-expression of all three subunits (wild-type or D427I TfAcCCB); Superdex 200 10/300 GL; 100 mM potassium phosphate pH 7.6, 0.75 mM DTT, 1 mM EDTA, 20% glycerol; apparent molecular weights against standards; peaks analysed by SDS-PAGE (Figure 2A, 2B)
[5] = target: N-terminal 6X-His tagged TfAcCCB (carboxyltransferase subunit of Thermobifida fusca YX acyl-CoA carboxylase) (Thermobifida fusca YX)

Row | Substance | stoichiometry N [1] | stoichiometry N [2] | stoichiometry N [3] | stoichiometry N [4] | specificity constant (Vmax/Km) of acyl-CoA carboxylation by purified TfAcCCB, made with or without co-expressed TfAcCCE, mixed in vitro with purified TfAcCCA (acetyl-, propionyl- and butyryl-CoA) [5]
1 | N-terminal 6X-His tagged TfAcCCB (carboxyltransferase subunit of Thermobifida fusca YX acyl-CoA carboxylase) (enzyme) | 6 and 9 and 3 | 6 and 12 and 18 |  |  | 
2 | TfAcCCA (biotin carboxylase / biotin carboxyl carrier subunit of Thermobifida fusca YX acyl-CoA carboxylase), without tag (enzyme) |  |  | 1 molar ratio | 3 and 6 and 9 | 
3 | TfAcCCE (non-catalytic subunit of Thermobifida fusca YX acyl-CoA carboxylase), without tag (natural protein) |  |  | 1 molar ratio |  | 20 fold
